{
  "source": "patent US11466255B2",
  "about": "“Methods and compositions for converting non-endocrine pancreatic tissue into insulin-producing cells” (UNIVERSITY OF MIAMI, priority 2015, dated 2022)",
  "key": {"[1]": {"tested_on": "hNEPT", "assay": "Immunofluorescence / ImageJ quantification of C-peptide+ cells", "assay_type": "cell-based, human", "conditions": "12 fields/sample, n=3; controls 8.15±0.92%, P<0.0001", "experimental": "Immunofluorescence characterization of the insulin-expressing clusters was conducted. To rule out potential false-positives derived from the presence of residual insulin in the culture medium, we stained for C-peptide, which is present in pro-insulin and therefore indicates de novo synthesis of insulin. […] In order to quantify the number of C-peptide+ cells after BMP-7 treatment ImageJ and the FIJI Analyze particles feature was used. Using this software on an average of 12 fields/sample (n=3), the percentage of C-peptide+cells in hNEPT populations after BMP-7 treatment was determined to be 30.43±4.07% vs. 8.15±0.92% in controls (P<0.0001).\nIF analysis and confocal microscopy: The present study was conducted on human pancreatic samples from cadaveric organ donors. […]\nImaging analysis: For general quantification purposes (e.g., percentage of C-peptide+ cells) we used ImageJ and the FIJI Analyze particles feature. […] Images were then binarized for quantification. The Watershed function was used on the DAPI channel to separate touching nuclei, which were subsequently counted by the Analyze particle command. Subsequently, we detected nuclei that were overlapping with C-peptide+ areas using the AND operator under the Image calculator feature of FIJI. Finally, we quantified the number of nuclei in the overlap area and calculated the ratio of the overlapping nuclei against the total nuclei."}, "[2]": {"tested_on": "pure islet preparations", "assay": "Pure islet preparations treated with BMP-7 (colony formation)", "assay_type": "cell-based, human", "conditions": "n=3"}, "[3]": {"tested_on": "hNEPT", "assay": "TLDA qRT-PCR gene expression in BMP-7-treated hNEPT", "assay_type": "cell-based, human", "conditions": "BMP-7-treated vs untreated control", "experimental": "The expression of 43 genes (including epithelial, acinar, islet and mesenchymal cell markers) was studied in hNEPT preparations (n=8) treated with BMP-7 and untreated controls at the same time point. […] GCK, MAFA and NKX6.1, as well as islet development markers HNF1B and NEUROD1 were also elevated.\nhNEPT culture: Human islets were isolated at the DRI's cGMP facility following methods already described54, and hNEPT samples (2-4 ml) were obtained as an isolation byproduct. The cells were washed and seeded on tissue culture-treated plates in FBS- and trypsin inhibitor-supplemented RPMI 1640 medium (Gibco-Life Technologies, Grand Island, N.Y.). After 48 h, floating cells were removed with fresh medium replacement. The following day, cultures were either treated with 100 ng/ml BMP-7 (ProSpec-Tany TechnoGene; Ness Ziona, Israel) or remained in the starting medium as controls. Cells were allowed to grow 4-5 days and then the serum-containing medium was replaced by serum-free Advanced RPMI 1640 (Gibco-Life Technologies, Grand Island, N.Y.). Four to five days later the cells were either subjected to static incubation to evaluate their ability to respond to changing glucose concentration or collected for further assessments (such as C-peptide content, immunohistochemistry or cellular composition) or transplantation.\nQuantitative Real Time RT-PCR: Samples were washed in PBS and resuspended in RNA later (Life Technologies—Ambion, Grand Island, N.Y.). RNA was extracted with the mirVana kit (Life Technologies-Applied Biosystems, Grand Island, N.Y.). 2 ng/μl of RNA was used for cDNA synthesis using High-Capacity cDNA Kit (Life Technologies-Applied Biosystems, Grand Island, N.Y.). Quantitative RT-PCR was performed with TaqMan assays (Life technologies—Applied Biosystems, Grand Island, N.Y.) following manufacturer's instructions. RNA expression was calculated as Relative Quantification (RQ) by Applied Biosystems software using the formula RQ=2−ddCT (ddCT=dCT of the sample−dCT of the control). dCT is the number of cycles normalized by endogenous control. Individual reactions were performed with a 7500 Fast Real Time PCR system (Life Technologies). Some experiments were performed using custom-made Taqman® Low Density Microarray (TLDA) cards containing 43 target genes and 3 endogenous genes (ubiquitin C, 18S rRNA and beta actin) and ran in a 7900 Real time PCR cycler (Life Technologies). Cts >35 were considered undetermined."}, "[4]": {"conditions": "reconstituted solution; cited from earlier work"}},
  "data": [
    {"molecule": "BMP-7: 35 kDa homodimeric protein of the TGF-β superfamily; FDA-approved agent; human mature chain SEQ ID NO:1/2 (protein, listed as Homo sapiens, homodimer; human mature chain of BMP-7 (NCBI Reference Sequence NM_001719.2) comprising peptide from 293-431) IRSTGSKQRSQNRSKTPKNQEALRMANVAENSSSDQRQACKKHELYVSFRDLGWQDWIIAPEGYAAYYCEGECAFPLNSYMNATNHAIVQTLVHFINPETVPKPCCAPTQLNAISVLYFDDSSNVILKKYRNMVVRACGCH", "values": [
      {"measurement": "percentage of C-peptide+ cells in hNEPT populations after treatment", "setting": "[1]", "result": "30.43±4.07", "unit": "%"},
      {"measurement": "colony formation", "setting": "[2]", "result": "failed to give rise to colonies"},
      {"measurement": "GCK, MAFA, NKX6.1, HNF1B and NEUROD1 expression", "setting": "[3]", "result": "elevated"},
      {"measurement": "extra-insular genes KRT-19, CPA1 and PNLIP expression", "setting": "[3]", "result": "up-regulation"},
      {"measurement": "ZEB2 expression (up-regulated)", "setting": "[3]; P<0.05", "result": 1.6, "unit": "fold"},
      {"measurement": "E-cadherin (CDH1) expression (up-regulated)", "setting": "[3]; p<0.01", "result": 6, "unit": "fold"},
      {"measurement": "EMT marker ZEB1 expression (down-regulated)", "setting": "[3]; p<0.01", "result": 0.4, "unit": "fold"},
      {"measurement": "PDX1 gene expression, average increase", "setting": "[3]; same time point, n=8", "result": 29, "unit": "fold"},
      {"measurement": "glucagon gene expression, average increase", "setting": "[3]; same time point, n=8", "result": 92, "unit": "fold"},
      {"measurement": "insulin gene expression, average increase", "setting": "[3]; same time point, n=8", "result": 40, "unit": "fold"},
      {"measurement": "pancreatic polypeptide (PPY) gene expression, average increase", "setting": "[3]; same time point, n=8", "result": 14, "unit": "fold"},
      {"measurement": "somatostatin (SST) gene expression, average increase", "setting": "[3]; same time point, n=8", "result": 28, "unit": "fold"},
      {"measurement": "time reconstituted BMP-7 is active", "setting": "[4]", "result": "2 to 7", "unit": "days"}
    ]}
  ]
}
